Percentage of CD69-positive CAR Jurkat cells after 24 h stimulation with PSMA-positive tumor cells (C4-2, LNCaP), E:T 1:1 data for one substance are collected here from US20210371491A1, “CHIMERIC ANTIGEN RECEPTORS THAT BIND TO PROSTATE SPECIFIC MEMBRANE ANTIGEN” (Albert-Ludwigs-Universitaet Freiburg, priority 2018, published 2021).

This experiment addresses prostate specific membrane antigen (PSMA) (UniProt Q04609). The experiment can be described thus: cell-based or functional assay.

Sequence of prostate specific membrane antigen (PSMA) (Q04609 whole entry, form in doubt): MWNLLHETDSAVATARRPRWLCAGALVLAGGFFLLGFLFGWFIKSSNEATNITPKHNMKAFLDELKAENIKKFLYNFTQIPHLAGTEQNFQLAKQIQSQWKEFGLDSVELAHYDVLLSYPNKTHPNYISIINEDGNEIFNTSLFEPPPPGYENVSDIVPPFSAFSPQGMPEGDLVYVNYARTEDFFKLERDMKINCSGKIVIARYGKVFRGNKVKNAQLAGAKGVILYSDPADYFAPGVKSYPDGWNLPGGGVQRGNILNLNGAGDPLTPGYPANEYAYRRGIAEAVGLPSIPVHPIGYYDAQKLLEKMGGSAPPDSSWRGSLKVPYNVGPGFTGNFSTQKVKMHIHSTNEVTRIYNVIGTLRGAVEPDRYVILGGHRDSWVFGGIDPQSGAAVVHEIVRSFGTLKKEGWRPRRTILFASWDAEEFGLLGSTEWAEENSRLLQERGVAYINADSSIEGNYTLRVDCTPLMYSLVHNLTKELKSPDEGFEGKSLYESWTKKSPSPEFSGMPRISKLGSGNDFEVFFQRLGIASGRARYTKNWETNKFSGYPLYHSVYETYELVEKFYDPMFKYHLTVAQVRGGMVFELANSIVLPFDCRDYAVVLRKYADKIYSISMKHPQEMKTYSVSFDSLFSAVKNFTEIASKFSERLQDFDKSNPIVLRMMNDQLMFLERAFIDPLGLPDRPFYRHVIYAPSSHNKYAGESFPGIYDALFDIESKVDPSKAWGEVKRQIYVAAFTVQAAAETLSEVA

“CAR28 (J591), anti-PSMA CAR with scFv derived from antibody J591” gave a percentage of CD69-positive CAR Jurkat cells after 24 h stimulation with PSMA-positive tumor cells (C4-2, LNCaP), E:T 1:1 of 70%.
